Test results reported in patent publication US7416847, “In vitro peptide or protein expression library” (Isogenica Limited).

T1: P2 A protein (replication initiation protein A), His6-tagged (Bacteriophage P2, UniProt Q06419 Q06419:1-761)
T1 sequence: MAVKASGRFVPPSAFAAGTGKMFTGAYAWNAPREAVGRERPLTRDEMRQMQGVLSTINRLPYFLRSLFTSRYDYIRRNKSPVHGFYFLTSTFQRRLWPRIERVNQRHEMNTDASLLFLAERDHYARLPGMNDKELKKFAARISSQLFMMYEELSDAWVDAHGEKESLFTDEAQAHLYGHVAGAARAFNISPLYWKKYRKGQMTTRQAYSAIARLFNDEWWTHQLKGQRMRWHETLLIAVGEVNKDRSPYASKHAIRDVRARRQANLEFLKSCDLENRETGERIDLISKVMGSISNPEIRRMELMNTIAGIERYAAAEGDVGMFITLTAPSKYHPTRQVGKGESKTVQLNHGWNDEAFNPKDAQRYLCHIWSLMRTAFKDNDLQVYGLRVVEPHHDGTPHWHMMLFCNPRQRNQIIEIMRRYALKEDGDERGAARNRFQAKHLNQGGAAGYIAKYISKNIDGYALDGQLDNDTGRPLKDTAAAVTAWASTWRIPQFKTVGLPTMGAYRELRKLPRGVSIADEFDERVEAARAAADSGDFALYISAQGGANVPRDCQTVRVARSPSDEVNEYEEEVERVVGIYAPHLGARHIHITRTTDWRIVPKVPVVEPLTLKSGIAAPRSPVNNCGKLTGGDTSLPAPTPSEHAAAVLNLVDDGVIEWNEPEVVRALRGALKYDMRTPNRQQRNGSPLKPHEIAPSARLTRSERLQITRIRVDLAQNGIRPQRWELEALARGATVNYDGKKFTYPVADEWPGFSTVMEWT

B1: pEN24 plasmid encoding His::A (contains P2 A attachment site) (dsDNA)
DNA 1: AGCGGCATCGCCGCGCCTCGGAGTCCTGTC
DNA 2: GACAGGACTCCGAGGCGCGGCGATGCCGCT
B2: pEE711 plasmid encoding His::A (contains P2 A attachment site) (dsDNA)
DNA 1: B1 DNA 1
DNA 2: B1 DNA 2

Tests used:
[1] = molecular target: T1, P2 A protein (replication initiation …); test: pulldown; Ni-NTA selection of His::A plasmid over A plasmid pEN21; no enrichment when S30 extract omitted; whole plasmid assayed, listed sequence is only the attachment region; 1 mM imidazole wash; conditions: tags: N-terminal His6 (expressed from pEE711 or pEN24 in E. coli T7 S30 extract, Promega)
Source text: In the second experiment two new plasmid constructs pEN21 (an A gene construct with an amp resistance gene, see FIG. 1) and pEN24 (a His::A gene construct with a tag of six histidine residues and a kanamycin resistance gene, see FIG. 1) were subjected to the same type of experiment as in experiment 1 above, with the modifications indicated in the materials and methods section below. By employing this differential antibiotic resistance it is possible to score for the individual plasmid types directly as bacterial colonies.
Materials and Methods pEN21 and 24 are derivatives of pET21a and pET24a (Novagen Inc. USA). The pET21a and pET24a vectors differ only by their selectable marker (ampicillin and kanamycin resistance respectively). The pEN21 and pEN24 were constructed by restriction cutting of pEE709 and pEE711 with XbaI and BlpI which cuts out the A gene and flanking regions. pET21a and pET24a were cut with the same restriction enzymes. The A-fragments and new vector fragments were isolated from an agarose gel after electrophoresis by Spin-Bind columns (FMC). […] The plasmids were incubated for 30 minutes in the S30 extracts and the plasmid types were scored by differential antibiotic resistance using ampicillin (pEN21) and kanamycin (pEN24) plates after transformation of E. coli strain BK 2118 by electroporation. […]

[2] = molecular target: T1, P2 A protein (replication initiation …); test: pulldown; Ni-NTA selection of His::A plasmid over A plasmid pEE709; cis covalent binding; whole plasmid assayed, listed sequence is only the attachment region; 50 mM Na-phosphate pH 8.0, 300 mM NaCl, 20 mM imidazole; conditions: tags: N-terminal His6 (expressed from pEE711 or pEN24 in E. coli T7 S30 extract, Promega)
Experimental: One ug of DNA of the pEE709 and the pEE711 plasmids respectively was added to the coupled transcription/translation extract kit (20 ul S30 premix, 5 ul aminoacid mix and 15 ul *E. Coli* T7 S30 extract system for circular DNA, Promega, USA). The transcription/translation was allowed to proceed for 60 minutes at 37° C. The extract mixture was diluted 12-fold in washing buffer (Qiagen; […] Na-phosphate pH 8.0, 300 mM NaCl, 20 mM imidazole, 1 mM PMSF) and subjected to Ni selection by addition to a Ni-NTA spin column (Qiagen, Germany) equilibrated with Buffer 1 (50 mM Na-phosphate pH 8.0, 300 mM NaCl, 20 mM imidazole) under non-denaturing conditions. […] High efficiency competent cells JM109 (Promega, USA) were transformed with a portion of the eluant and scored for ampicillin resistant colonies. […]
To determine the distribution (ratio) of the plasmid types in the eluant, the presence of plasmids was measured by transformation of strain JM 109 (Promega) for amp-resistance. Colonies were picked and analysed for their plasmid type (differentiated by size) after plasmid extraction followed by agarose gel electrophoresis. The ratio of pEE711 (His::A) to pEE709 (A) in the absence of Ni-column selection was also determined.

Row | Binder | binding signal [1] [fold enrichment] | binding signal [2] [fold enrichment]
1 | B1 | 6.8 | –
2 | B2 | – | 13.3
